Reverse-splicing fitness data for 15 variants are collected here from the RNAGym collection of RNA variant scans (doi:10.1093/molbev/msab373).

B1: Azoarcus group I ribozyme (parent)
chain: GUGCCUUGCGCCGGGAAACCACGCAAGGGAUGGUGUCAAAUUCGGCGAAACCUAAGCGCCCGCCCGGGCGUAUGGCAACGCCGAGCCAAGCUUCGGCGCCUGCGCCGAUGAAGGUGUAGAGACUAGACGGCACCCACCUAAGGCAAACGCUAUGGUGAAGGCAUAGUCCAGGGAGUGGCGAAAGUCACACAAACCGG

In this series the parent is B1. Kind of series: reverse-splicing fitness (ratio to wild type); higher = more active; in vitro selection; Mg2+ level not given. A digest of the protocol: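 An in vitro group I ribozyme library with randomized positions was T7-transcribed and gel-purified. In triplicate, 10 pmol RNA in EPPS pH 7.5 was reacted with 50 pmoles of a 30-nt RNA substrate for 1 h at 37 °C across several added MgCl2 levels (1–48 mM), then stopped with EDTA. Products were reverse transcribed from a substrate-complementary primer, PCR-amplified and sequenced (HiSeq 4000). Fitness is a variant's read proportion after selection over that before, normalised to wild type.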
Take GUGCCUUGCGCCGGGAAACCACGCAAGGGAUGGUGUCAAAUUCGGCGAAACCUAAGCGCCCGCCCGGGCGUAUGGCAACGCGGAGCCAAGCUUCGGCGCCUGCGCCGAUGCAGGUGUAGUGACUAGACGGCACCCACCUAAGGCAAACGCUAUGGUGAAGGCAUAGUCAAGGGAGUGGCGAAAGUCACACAAACCGG [C82G A111C A120U C169A]: the reverse-splicing fitness was 0.00474.

For the variant GUGCCUUGCGCCGGGAAACCACGCAAGGGAUGGUGUCAAAUUCGGCGAAACCUAAGCGCCCGCCCGGGCGUAUGGCAACGCGGAGCCAAGCUUCGGCGCCUGCGCCGAUGCAGGUGUAGUGACUAGACGGCACCCACCUAAGGCAAACGCUAUGGUGAAGGCAUAGUCGAGGGAGUGGCGAAAGUCACACAAACCGG [C82G A111C A120U C169G], the reverse-splicing fitness came out at 0.00478.

As for GUGCCUUGCGCCGGGAAACCACGCAAGGGAUGGUGUCAAAUUCGGCGAAACCUAAGCGCCCGCCCGGGCGUAUGGCAACGCGGAGCCAAGCUUCGGCGCCUGCGCCGAUGCAGGUGUAGUGACUAGACGGCACCCACCUAAGGCAAACGCUAUGGUGAAGGCAUAGUCCAGGGAGAGGCGAAAGUCACACAAACCGG [C82G A111C A120U U176A], the reverse-splicing fitness is 0.0113.

Regarding GUGCCUUGCGCCGGGAAACCACGCAAGGGAUGGUGUCAAAUUCGGCGAAACCUAAGCGCCCGCCCGGGCGUAUGGCAACGCGGAGCCAAGCUUCGGCGCCUGCGCCGAUGCAGGUGUAGUGACUAGACGGCACCCACCUAAGGCAAACGCUAUGGUGAAGGCAUAGUCCAGGGAGCGGCGAAAGUCACACAAACCGG [C82G A111C A120U U176C], the reverse-splicing fitness is 0.0175.

Regarding GUGCCUUGCGCCGGGAAACCACGCAAGGGAUGGUGUCAAAUUCGGCGAAACCUAAGCGCCCGCCCGGGCGUAUGGCAACGCGGAGCCAAGCUUCGGCGCCUGCGCCGAUGCAGGUGUAGUGACUAGACGGCACCCACCUAAGGCAAACGCUAUGGUGAAGGCAUAGUCCAGGGAGGGGCGAAAGUCACACAAACCGG [C82G A111C A120U U176G], the reverse-splicing fitness is 0.00466.

As for GUGCCUUGCGCCGGGAAACCACGCAAGGGAUGGUGUCAAAUUCGGCGAAACCUAAGCGCCCGCCCGGGCGUAUGGCAACGCGGAGCCAAGCUUCGGCGCCUGCGCCGAUGCAGGUGUAGUGACUAGACGGCACCCACCUAAGGCAAACGCUAUGGUGAAGGCAUAGUCGAGGGAGCGGCGAAAGUCACACAAACCGG [C82G A111C A120U C169G U176C], the reverse-splicing fitness was 0.00367.

Take GUGCCUUGCGCCGGGAAACCACGCAAGGGAUGGUGUCAAAUUCGGCGAAACCUAAGCGCCCGCCCGGGCGUAUGGCAACGCGGAGCCAAGCUUCGGCGCCUGCGCCGAUGCAGGUGUAGUGACUAGACGGCACCCACCUAAGGCAAACGCUAUGGUGAAGGCAUAGUCGAGGGAGAGGCGAAAGUCACACAAACCGG [C82G A111C A120U C169G U176A]: the reverse-splicing fitness worked out at 0.00344.

Take GUGCCUUGCGCCGGGAAACCACGCAAGGGAUGGUGUCAAAUUCGGCGAAACCUAAGCGCCCGCCCGGGCGUAUGGCAACGCGGAGCCAAGCUUCGGCGCCUGCGCCGAUGCAGGUGUAGUGACUAGACGGCACCCACCUAAGGCAAACGCUAUGGUGAAGGCAUAGUCGAGGGAGGGGCGAAAGUCACACAAACCGG [C82G A111C A120U C169G U176G]: the reverse-splicing fitness was found to be 0.00213.

For GUGCCUUGCGCCGGGAAACCACGCAAGGGAUGGUGUCAAAUUCGGCGAAACCUAAGCGCCCGCCCGGGCGUAUGGCAACGCGGAGCCAAGCUUCGGCGCCUGCGCCGAUGCAGGUGUAGAGACUAGACGGCACCCACCUAAGGCCAACGAUAUGGUGAAGGCAUAGUCAAGGGAGCGGCGAAAGUCACACAAACCGG [C82G A111C A145C C150A C169A U176C], the reverse-splicing fitness amounted to 0.00947.

Turning to GUGCCUUGCGCCGGGAAACCACGCAAGGGAUGGUGUCAAAUUCGGCGAAACCUAAGCGCCCGCCCGGGCGUAUGGCAACGCGGAGCCAAGCUUCGGCGCCUGCGCCGAUGCAGGUGUAGAGACUAGACGGCACCCACCUAAGGCCAACGAUAUGGUGAAGGCAUAGUCAAGGGAGAGGCGAAAGUCACACAAACCGG [C82G A111C A145C C150A C169A U176A], the reverse-splicing fitness was 0.0136.

In the case of GUGCCUUGCGCCGGGAAACCACGCAAGGGAUGGUGUCAAAUUCGGCGAAACCUAAGCGCCCGCCCGGGCGUAUGGCAACGCGGAGCCAAGCUUCGGCGCCUGCGCCGAUGCAGGUGUAGAGACUAGACGGCACCCACCUAAGGCCAACGAUAUGGUGAAGGCAUAGUCAAGGGAGGGGCGAAAGUCACACAAACCGG [C82G A111C A145C C150A C169A U176G], the reverse-splicing fitness was 0.00782.

In the case of GUGCCUUGCGCCGGGAAACCACGCAAGGGAUGGUGUCAAAUUCGGCGAAACCUAAGCGCCCGCCCGGGCGUAUGGCAACGCGGAGCCAAGCUUCGGCGCCUGCGCCGAUGCAGGUGUAGUGACUAGACGGCACCCACCUAAGGCAAACGCUAUGGUGAAGGCAUAGUCUAGGGAGGGGCGAAAGUCACACAAACCGG [C82G A111C A120U C169U U176G], the reverse-splicing fitness stood at 0.00247.

Consider GUGCCUUGCGCCGGGAAACCACGCAAGGGAUGGUGUCAAAUUCGGCGAAACCUAAGCGCCCGCCCGGGCGUAUGGCAACGCGGAGCCAAGCUUCGGCGCCUGCGCCGAUGCAGGUGUAGUGACUAGACGGCACCCACCUAAGGCAAACGCUAUGGUGAAGGCAUAGUCUAGGGAGCGGCGAAAGUCACACAAACCGG [C82G A111C A120U C169U U176C], for which the reverse-splicing fitness was 0.00475.

On to GUGCCUUGCGCCGGGAAACCACGCAAGGGAUGGUGUCAAAUUCGGCGAAACCUAAGCGCCCGCCCGGGCGUAUGGCAACGCGGAGCCAAGCUUCGGCGCCUGCGCCGAUGCAGGUGUAGUGACUAGACGGCACCCACCUAAGGCAAACGCUAUGGUGAAGGCAUAGUCUAGGGAGAGGCGAAAGUCACACAAACCGG [C82G A111C A120U C169U U176A], for which the reverse-splicing fitness worked out at 0.00632.

Take GUGCCUUGCGCCGGGAAACCACGCAAGGGAUGGUGUCAAAUUCGGCGAAACCUAAGCGCCCGCCCGGGCGUAUGGCAACGCGGAGCCAAGCUUCGGCGCCUGCGCCGAUGCAGGUGUAGAGACUAGACGGCACCCACCUAAGGCCAACGAUAUGGUGAAGGCAUAGUCCAGGGAGUGGCGAAAGUCACACAAACCGG [C82G A111C A145C C150A]: the reverse-splicing fitness was 0.016.
